{"source": "paper PMC8267817", "binders": {"B1": {"name": "C6 nanobody (purified, monovalent) (VHH)", "VHH": "DVQLVESGGGLVQAGDSLRLSCAASGLTFSRYAMGWFRQAPGNEREFVAVITASGRTTLYADSVKGRFTISRDNAKNTVALQMQSLKPEDTAVYYCAADYGTSRYTRRQSEYEYWGQGTQVTVSS"}}, "biological_target": "T1, phosphorylated peptide CKATQA(p)SQEY corresponding to the C-terminal end of γ-H2AX (human)", "T1 sequence (peptide, phosphoserine at S139 (7th letter of the printed peptide))": "CKATQASQEY", "experiment": "SPR; Biacore T200, 25 °C, HBS-P (10 mM HEPES pH 7.4, 150 mM NaCl, 0.05% P20); phosphopeptide immobilised by thiol coupling of its N-terminal cysteine; VHH injected 120 s; Kd from equilibrium response fitted to a 1:1 model; fractional occupancy at saturating amounts (C6 180 nM, C6B 80 nM)", "data": [{"binder": "B1", "values": [{"measurement": "Kd", "value": 11, "unit": "nM"}]}]}
